Laboratory results taken from patent publication US20250296996A1 (BROADWING BIO, published 2025).

T1: P66 (rabbit ANGPTL7-his) (rabbit, UniProt G1T4P1 27-344)
T1 construct: mature; also called rabbit ANGPTL7 protein
T1 sequence: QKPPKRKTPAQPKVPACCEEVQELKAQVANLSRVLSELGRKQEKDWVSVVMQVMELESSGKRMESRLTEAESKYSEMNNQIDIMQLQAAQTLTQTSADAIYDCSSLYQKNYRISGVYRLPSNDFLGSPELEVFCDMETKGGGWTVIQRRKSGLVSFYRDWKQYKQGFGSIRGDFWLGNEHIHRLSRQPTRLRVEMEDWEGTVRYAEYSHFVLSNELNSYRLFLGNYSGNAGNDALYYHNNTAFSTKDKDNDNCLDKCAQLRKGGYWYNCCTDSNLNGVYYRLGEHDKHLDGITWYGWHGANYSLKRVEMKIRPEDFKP

T2: P62 (huANGPTL7-his) (human, UniProt O43827 27-346)
T2 construct: not shown: C-terminal short linker and His tag
T2 chain: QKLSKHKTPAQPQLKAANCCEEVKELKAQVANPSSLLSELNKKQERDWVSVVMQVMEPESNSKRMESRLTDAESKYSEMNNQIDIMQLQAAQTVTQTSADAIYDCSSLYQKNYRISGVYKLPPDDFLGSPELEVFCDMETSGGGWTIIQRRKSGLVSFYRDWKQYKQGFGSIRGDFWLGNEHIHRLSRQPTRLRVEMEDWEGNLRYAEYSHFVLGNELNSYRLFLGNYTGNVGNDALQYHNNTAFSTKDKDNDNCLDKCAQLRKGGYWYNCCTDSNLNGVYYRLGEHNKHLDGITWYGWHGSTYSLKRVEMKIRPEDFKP

T3: Pext-01 (huANGTPL7-FLAG multimer) (human, UniProt O43827 27-346)
T3 construct: also called PExt-1; human wild type ANGPTL7 multimer; not shown: FLAG tag
T3 sequence: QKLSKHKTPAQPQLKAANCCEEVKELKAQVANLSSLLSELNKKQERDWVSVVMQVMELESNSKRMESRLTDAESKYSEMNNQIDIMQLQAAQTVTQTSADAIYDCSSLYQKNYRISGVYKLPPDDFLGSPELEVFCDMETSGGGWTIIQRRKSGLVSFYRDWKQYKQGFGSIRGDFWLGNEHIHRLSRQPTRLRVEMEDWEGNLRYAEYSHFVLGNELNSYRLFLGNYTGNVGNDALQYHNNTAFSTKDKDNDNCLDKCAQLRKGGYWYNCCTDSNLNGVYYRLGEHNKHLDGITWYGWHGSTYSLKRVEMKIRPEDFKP

T4: muANGPTL7-his (R&D Systems) (mouse, UniProt Q8R1Q3 22-337, limits assumed)
T4 construct: Bought protein; also called mouse ANGPTL7 protein
T4 sequence (looked up): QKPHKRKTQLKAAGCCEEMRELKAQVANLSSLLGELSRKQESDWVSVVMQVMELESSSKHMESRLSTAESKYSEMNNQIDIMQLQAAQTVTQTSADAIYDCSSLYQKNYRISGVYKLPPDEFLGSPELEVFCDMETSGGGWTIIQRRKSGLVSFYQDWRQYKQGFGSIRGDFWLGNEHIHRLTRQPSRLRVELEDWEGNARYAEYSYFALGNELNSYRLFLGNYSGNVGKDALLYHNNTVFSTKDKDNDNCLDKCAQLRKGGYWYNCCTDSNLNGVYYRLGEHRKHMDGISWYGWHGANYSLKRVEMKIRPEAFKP


Experiments:
[1] = molecular target: T1, P66 (rabbit ANGPTL7-his); experiment: BLI Octet HTX; IgG on AHC sensor; P66 at 200 nM
Description: Experiments were also conducted to determine the reactivity and dissociation constants ([…]) of anti-ANGPTL7 antibodies with the rabbit ANGPTL7 protein. Binding experiments were performed on Octet HTX (ForteBio) in Rx PBS, pH 7.4, 0.1 mg/mi BSA, 0.05% Sodium Azide, and 0.02% Tween 20. Antibodies at a concentration of 50 nM were loaded on pre-hydrated AHC biosensors for 5 min. The loaded sensors were dipped into monovalent P66 (rabbit ANGPTL7-his) at a concentration of 200 nM for 5 min of association, followed by 10 min of dissociation. […] Responses (nm) at the end of association were also determined (Table 6).

[2] = molecular target: T2, P62 (huANGPTL7-his); experiment: BLI Octet HTX; IgG on AHC sensor; P62 0.343-250 nM
Description: (§1) Experiments were also conducted to determine the reactivity and dissociation constants (KD) of anti-ANGPTL7 antibodies with the human ANGPTL7-his protein. Binding experiments were performed on Octet HTX (ForteBio) in 1×PBS, pH 7.4, 0.1 mg/mi BSA, 0.05% Sodium Azide, and 0.02% Tween 20. To measure monovalent binding kinetics, antibodies at a concentration of 50 nM were loaded on pre-hydrated AHC biosensors for 5 min. The loaded sensors were dipped into monovalent P62 (huANGPTL7-his) at a range of concentration from 0.343-250 nM (a serial 3-fold dilution) for 5 min association, followed by 10 min dissociation.

[3] = molecular target: T3, Pext-01 (huANGTPL7-FLAG multimer); experiment: BLI Octet HTX; IgG on AHC sensor; Pext-01 at 100 nM
Description: Experiments were also conducted to determine the reactivity and dissociation constants (KD) of anti-ANGPTL7 antibodies with the human ANGPTL7 multimer protein. Binding experiments were performed on Octet HTX (ForteBio) in 1×PBS, pH 7.4, 0.1 mg/ml BSA, 0.05% Sodium Azide, and 0.02% Tween 20. Antibodies at a concentration of 50 nM were loaded on pre-hydrated AHC biosensors for 5 mi. The loaded sensors were dipped into Pext-01 (huANGTPL7-FLAG) at a concentration of 100 nM for 5 min of association, followed by 10 min of dissociation. […] Responses (nm) at the end of association were also determined (Table 7).

[4] = molecular target: T4, muANGPTL7-his (R&D Systems); experiment: BLI Octet HTX; IgG on AHC sensor; muANGPTL7-his at 200 nM
Outline: (§2)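 Anti-ANGPTL7 antibodies (50 nM) were loaded on AHC biosensors in PBS pH 7.4 with BSA, azide and Tween 20. Sensors were dipped in monovalent mouse ANGPTL7-his (200 nM) for 5 min association and 10 min dissociation. KD came from a 1:1 fit, and responses were taken at the end of association.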

[5] = molecular target: T4, muANGPTL7-his (R&D Systems); experiment: BLI Octet HTX; IgG on AHC sensor; muANGPTL7-his at 200 nM; 1:1 fit
Outline: as §2

[6] = molecular target: T2, P62 (huANGPTL7-his); experiment: BLI Octet HTX; IgG on AHC sensor; P62 0.343-250 nM; global 1:1 fit
Description: as §1

Row | Binder | binding result [1] | binding result [2] | binding result [3] | binding result [4] | Response [5] | binding result [6] | Kd [5]
1 | ATX-P-428 (antibody, human IgG1, kappa, N297A, V domains shown, Full chains (VH + hIgG1-Agly-Fc)) VH: QVQLVQSGAEVKKPGASVKVSCKASGYTFSSYGISWVRQAPGQGLEWMGWISAYNGNTNYAQNLRGRVAMTTDTSTTTAYMELRSLRSDDTAVYYCARVSLVWFGELPRGFDYWGQGTLVTVSS VL: not shown | no binding (tested: 200 nM) | no binding (tested: 250 nM) | no binding (tested: 100 nM) | no binding (tested: 200 nM) | 0.04 nm |  | 
2 | ATX-P-449 (antibody, human IgG1, kappa, N297A, V domains shown, Full chains (VH + hIgG1-Agly-Fc)) VH: QVQLVESGGGVVQPGRSLRLSCAASGFAFSSYGMHWVRQAPGKGLEWVAVISYYGSNKYYADSVKGRFTISRDNSKNTLYLQMNSLRAEDTAVYHCARGITMDVWGKGTTVTVSS VL: EIVLTQSPATLSLSPGERATLSCRASQSVSSYLAWYQQKPGQAPRLLIYDASNRATGIPARFSGSGSGTDFTLTISSLEPEDFAVYYCQQRSNWPLTFGGGTKVEIKR |  |  |  |  | 0.75 nm | binds | 0.857 nM
3 | ATX-P-443 (antibody, human IgG1, kappa, N297A, V domains shown, Full chains (VH + hIgG1-Agly-Fc)) VH: QVQLVQSGAEVKKPGASVKVSCKASGYTFTSYGISWVRQAPGQGLEWMGWIIAYNGNTNYAQKLQGRITMTTNTSTNTAYMELRSLRSDDTAVYYCGRDTGFSFDYWGQGTLVTVSS VL: not shown | no binding (tested: 200 nM) | no binding (tested: 250 nM) | no binding (tested: 100 nM) | no binding (tested: 200 nM) |  |  | 
